These results are taken from paper PMC2245940, “Blocking binding of Bacillus thuringiensis Cry1Aa to Bombyx mori cadherin receptor results in only a minor reduction of toxicity” (BMC Biochemistry, 2008).

In assay [1] the target is Bombyx mori cadherin-like protein BtR175 (Bombyx mori (endogenous in larval midgut)). The experiment in a line: SPR; receptors (100-200 ng) amine-coupled to a CM5 chip; toxin 100-1000 nM injected in HBS pH 7.4 (10 mM Hepes, 150 mM NaCl, 3.4 mM EDTA) at 50 ul/min; blank flowcell subtracted; 1:1 Langmuir fit; apparent rate constants.
The target is the same in assay [2].
Assay [3] deals with T1, Bacillus thuringiensis Cry1Aa insecticidal protein, wild type, trypsin-activated toxin (Bacillus thuringiensis, UniProt P0A366 1-1176).
T1 construct: trypsin-resistant 65 kDa toxin cut from the solubilized protoxin; also called Cry1Aa (Wt); Cry1Aa wt; source: E. coli MV1190 containing pBN-1Aa; crystal inclusion bodies solubilized, trypsin-digested, purified (Superdex 200, monomeric fraction)
The experiment in a line: SPR; receptors (100-200 ng) amine-coupled to a CM5 chip; toxin 100-1000 nM injected in HBS pH 7.4 (10 mM Hepes, 150 mM NaCl, 3.4 mM EDTA) at 50 ul/min; blank flowcell subtracted; 1:1 Langmuir fit; apparent rate constants. As to conditions: both partners purified.

On to “Bacillus thuringiensis Cry1Aa insecticidal protein, wild type, trypsin-activated toxin (from UniProt P0A366 1-1176) (natural protein)”, for which, in assay [1], the Kd is 2.6 nM, the koff worked out at 3.3e-05 s⁻¹ and the kon turned out to be 13000 M⁻¹ s⁻¹.

The molecule “Cry1Aa mutant toxin F328A, trypsin-activated (from UniProt P0A366 1-1176) (natural protein)” gave an LC50 against B. mori larvae (surface contamination bioassay, mortality after 5 days) in assay [2] of 41.5 ng/ccm. In addition, in assay [1], the Kd turned out to be 60.7 nM, the koff turned out to be 9.1e-05 s⁻¹ and the on-rate (kon) amounted to 1500 M⁻¹ s⁻¹.

B1: Bombyx mori aminopeptidase N (receptor)
chain: LSPIPVPEDEWVEFARMLRDPAFRLPTTTRPRHYQVTLTPYFDVVPANVNPFTFDGEVTIYTSPTVANVNEVVIHCNDLTIQSLSIGYQSGTNVVDITATGQTFACEMPFSFLRIRTTEALVLNREYIIKSTFRGNLQTNMRGFYRSWYVDSTGRRWMGTTQFQPGHARQAFPCYDEPGFKATFDITMNREESFSPTISNMPIRTTNTLANGRVSETFWTTPVTSTYLLAFIVSHYTVVSTNNNALRPFDIYARNNVGRTGDWSLEIGEKLLEAMEAYTQIPYYTMAENINMKQAAIPDFSAGAMENWGLLTYREALILYDPLNSNHFYKQRVANIVAHEIAHMWFGNLVTCAWWDNLWLNEGFARFYQYYLTASVAPELGYETRFIVEQVQMAMFSDSVDTAHALTDLNVNDPTTVSAHFSTITYARGAAILRMTQHLLGVETFVKGLRNYLRERQFNVAEPHHLFTALDAAAVEDGALNGYGGITIDTYFRTWSEKAGHPLLTVTINQRTGEMIVTQERWERNTGVSQFPSLWHIPITWTRAGAPEFEDLKPSQFISQQVTSINRGTTGLEWVIFNKQEAGFYRVNYDDTNWALLTRALRSSSRTAIHQLNRAQIVDDIFQLARANVMKYNRAFNILSFLQFEDEYAPWLAAISGFNFLIRRLAHDSTNAALLQKLILELSPAVVAKLGYLEPENGSYMTDLQRMYVMEFLCNVGHEECNNFGTQAFRRWSTGTFIPANMRPWVYCAGLRHGTAEDFNFFWNRYLQEDLSSEKVVMLNVAGCTTDQASLNRFLDAIVSGNDDIRPQDYNAALTSAITSNEINTLRAFQWLRNNVDQATRTLGSVSTILNTIIGRLLNEEQINEVSNWLTANQNTLGATYSTALRAIETTRSNLVWSQQRISEFTNYFESGYVEDVIEEITEAPPTAPPTAPPTEAPAVTPAPDSANVAALSFITLIITLAVNLA
With B1, in assay [3], the Kd turned out to be 75 nM, the koff amounted to 0.0015 s⁻¹ and the on-rate constant (kon) worked out at 21000 M⁻¹ s⁻¹.
